This data set deals with the molecule itself. The data set can be described thus: light scattering.

B1: Recombinant mouse neurofilament light chain protein, wild type (NfL-WT) (natural protein, UniProt P08551 1-543, looked up)
chain: MSSFGYDPYFSTSYKRRYVETPRVHISSVRSGYSTARSAYSSYSAPVSSSLSVRRSYSSSSGSLMPSLENLDLSQVAAISNDLKSIRTQEKAQLQDLNDRFASFIERVHELEQQNKVLEAELLVLRQKHSEPSRFRALYEQEIRDLRLAAEDATNEKQALQGEREGLEETLRNLQARYEEEVLSREDAEGRLMEARKGADEAALARAELEKRIDSLMDEIAFLKKVHEEEIAELQAQIQYAQISVEMDVSSKPDLSAALKDIRAQYEKLAAKNMQNAEEWFKSRFTVLTESAAKNTDAVRAAKDEVSESRRLLKAKTLEIEACRGMNEALEKQLQELEDKQNADISAMQDTINKLENELRSTKSEMARYLKEYQDLLNVKMALDIEIAAYRKLLEGEETRLSFTSVGSITSGYSQSSQVFGRSAYSGLQSSSYLMSARSFPAYYTSHVQEEQTEVEETIEATKAEEAKDEPPSEGEAEEEEKEKEEGEEEEGAEEEEAAKDESEDTKEEEEGGEGEEEDTKESEEEEKKEESAGEEQVAKKKD
modifications: native post-translational phosphorylation (varying levels, sites not given); N-terminal carbamoylation observed from the urea conditions
For the protein B1, the binding result was “binds”.

Values taken from doi:10.1101/2025.01.26.634877 (bioRxiv, 2025).
